The values that follow come from the DeepSol protein solubility set.

A short description of the data set: soluble on expression in E. coli; label from the status in PepcDB or PDB records.
In the case of “MGSDKIHHHHHHMAQIIVVTSGKGGVGKTTSSAAIATGLALKGKKTVVIDFDIGLRNLDLIMGCERRVVYDFVNVINGEANLNQALIKDKRCDKLFILPASQTRDKDALTKEGVGRVLENLAKDFDYIVCDSPAGIEQGAMMALYFADIAIVTTNPEVSSVRDSDRILGMLQSRSRRAELSLEPIKEYLLLTRYSPARVKTGEMLSVEDVKEILAIELLGVIPESQSVLKASNSGVPVIIDQESDAGLAYGDTVARLLGDDVPVRFITEEKKGFLKRIFGS”, the “soluble on expression in E. coli” value is “not soluble”.
For “GPEQVLDRASMHLANGLLGNPDSAAGLEVLLGGLKLRFVSGSAVAVTGAEGMVTLDGTELPLNKAVRVPPGAVLELGPAMFGIRYYLAVQGGISAQGEAAQGEAIRAGAALTFGRPNNHGSPEVNHPARRALDPERPVVARVSRGPQAQNDDAGTWLRLTSEPWILSPESDRAGARLVGRPLDVTSAPIPQAQPLVSGSVLLPSSGLPVIALAGHPDTSQSPVIAVVRDEDLDVLGQARPGQMVHLLG” the value was “not soluble”; for “MKKSILFICLLTLASTLAKVQAQEERNHGIIWSSLHGLEYGVKAGFNIGGTSPLPLPQEIRAITGYSPNVCFAIEGNVTKWFDKDKKWGMILGLRLENKGMETKARVKNYGMEIIGDGGEHLAGNWTGKVKTKFKASYFSIPILAAYQLSPRVRLSAGPYVSFMTSGDFNGYVSDGYLRKGDPTGTKVEFKDGNTAPYDFSKDLRSFQWGMQAGAEWKAFKHLTVHADLEWGLNDIFKKEFKTITFNMYPIYLNAGFGYAF”, “not soluble”; for “MKKLIVDLDGTLTQANTSDYRNVLPRLDVIEQLREYHQLGFEIVISTARNMRTYEGNVGKINIHTLPIITEWLDKHQVPYDEILVGKPWCGHDGFYIDDRAVRPSEFASMNLEEIHQLFEKEKSCS”, “soluble”.
For “GMEKKSSYKTVLLGESSVGKSSIVLRLTKDTFHENTNTTIGASFCTYVVNLNDINIKNNSNNEKNNNINSINDDNNVIITNQHNNYNENLCNIKFDIWDTAGQERYASIVPLYYRGATCAIVVFDISNSNTLDRAKTWVNQLKISSNYIIILVANKIDKNKFQVDILEVQKYAQDNNLLFIQTSAKTGTNIKNIFYMLAEEIYKNIIN” the value was “soluble”; for “MSAAEEVDGLGVVRPHYGSVLDNERLTAEEMDERRRQNVAYEYLCHLEEAKRWMEACLGEDLPPTTELEEGLRNGVYLAKLGNFFSPKVVSLKKIYDREQTRYKATGLHFRHTDNVIQWLNAMDEIGLPKIFYPETTDIYDRKNMPRCIYCIHALSLYLFKLGLAPQIQDLYGKVDFTEEEINNMKIELEKYGIQMPAFSKIGGILANELSVDEAALHAAVIAINEAIDRRVAADTFTALKNPNAMLVNLEEGLAPTYQDVLYQAKQDKMTNAKNRTENSDRERDVYEELLTQAEIQGNVNKVNTSSALADISLALEQGCAVTLLKALQSLALGLRGLQTQNSDWYMKQLQSDLQQKRQSGQTDPLQKEEVQAGVDAANSAAQQYQRRKRPLAPGHRSVQGRAVVALCH”, “soluble”.
For “MSSPRHVFYISDRTGLTAENIGEALLNQFGNLSFKRHTHPFVDTPEKARAVVEKVNRSRQENGQRPIAFVSVVDDEIRRIIKGADAFQINFFETFLGLLEKELNTEATASEQGHHSIGNTKRYDARMEAVNFSLNHDDGVSDKNLQEADVILMGVSRSGKTPTCLYLALQYGIRAANYPLIPDDLESADLPRMVKPYRDKLFGLTIQPERLQAIRQERRPNSTYAKIDTCRSEVADAQSMFRRHGIPFANTTDKSVEELAVHILQACKLKRRFLEHHHHHH” the value was “soluble”; for “MGSDKIHHHHHHMMKMAEFIMVVGTSSNSGKTTITAGLCRILANKGYKVAPFKSQNMSLNSRVAKEDGEIAIAQYTQSLACRVEPSVHFNPILLKPKGNFISQVIVHGRPYKDMNYNEYRKNKDFFLKKIKESLEILDREYDYVIMEGAGSCCEINLLKDDIANLRIAELVNAKAILVADIDRGGVFASIYGTIKLLPENWRKLIKGIIINKFRGNVEVLKEGIEKIEELTGIPVLGIVPYDENLVLPEEDSQVLQSMRSFGNAKSGVEINVVRFSKISNFTDLDPLRYDAFIKFIDFDDDITGDILIFPGTRSSTKEAYYLKQHNFDEKVLEFLKDGGIVIGICGGYQVLGKELIDKEKKESDVGDIEGLKIFDAKTYFGNDKVVKNSCGFLEIDNKTFNVKGYEIHEGFTYSKEKPLIKIERGFGNCGNGFDGSIKKFGDGLAIGTYFHGIFENYEFRNYIINLIRKRKGLDEIYGDSYKDSIEKSLNYFAEVVERSVNLKPLGINAT”, “not soluble”.
